This data set can be described thus: protein stability index of a GFP-peptide fusion (GPS, HEK-293T) (PSI 1-6); higher = more stable. As to conditions: c terminus: a fixed tail appended.

± gives the standard deviation.
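Further: 24-mer peptide tiles fused after GFP, lentivirally expressed, FACS-sorted into six equal bins by GFP/DsRed ratio, decoded by Illumina sequencing, PSI is the read-weighted mean bin number.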

Regarding EAASFLQILPVLDFCKVFLISGVT [KLHL13], the protein stability index is 3.43 ± 0.78 (treatment: DMSO) and 2.96 ± 0.13 (treatment: MLN4924 1 uM, 8 h).
For EAIQPYRDRLRSRLEALSTERDEI [TRIM15] the same measures were 4.61 ± 0.12 and 4.52 ± 0.14.
For EARARARANRGILQQERQRLGQRQ [DNAJC4], in that order: 4.74 ± 0.28 and 4.65 ± 0.14.
For EARFIRRSCTPNAEVRHEIQDGTI [KMT2E], in that order: 4.34 ± 0.67 and 4.27 ± 0.11.
EDIDTSMYDNELWAPASEGLKPGP [SERTAD1]: the protein stability index reads like this: (treatment: DMSO) 4.84 ± 0.19; (treatment: MLN4924 1 uM, 8 h) 4.76 ± 0.17.
For EECIPEHMVRESKIMEAESQKATR [FAN1], in that order: 5.12 ± 0.77 and 4.72 ± 1.2.
For EEDRPLGGGEGHQPAGNRRGQARR [BEX3] the same measures were 5.72 ± 0.14 and 5.563 ± 0.048.
For EEEDREEEDENGLPRRRGLRKKKT [NEUROD6] the same measures were 5.53 ± 0.59 and 5.52 ± 0.37.
EEEEEATNTHPPASLPSQKYPGPQ [CHGA]: the protein stability index amounted to 5.61 ± 0.16 (treatment: DMSO) and 5.54 ± 0.17 (treatment: MLN4924 1 uM, 8 h).
For EELQNKILTATVDNANILLQIDNA [KRT17], in that order: 4.03 ± 0.095 and 4.3 ± 0.053.
For EEPAEKEDLLQQMLERRYTPYPNL [CLCN6], in that order: 4.4 ± 0.19 and 4.44 ± 0.37.
For the sequence EESFRQMVVIHKEIPTGKKDHECS [ZNF232], the protein stability index reads like this: (treatment: DMSO) 4.84 ± 0.31; (treatment: MLN4924 1 uM, 8 h) 4.77 ± 0.11.
EEVSEVESFILDQDDLENPMLETA [ANKRD17]: the protein stability index (treatment: DMSO) worked out at 5.69 ± 0.23 and the protein stability index (treatment: MLN4924 1 uM, 8 h) worked out at 5.16 ± 0.57.
For EFDDGSGSVLRIQPLRTPRDEAIY [PTPRD] the same measures were 3.47 ± 0.11 and 3.88 ± 0.54.
For EFTIRDLQRLGELQSELAGVADFS [INTS4] the same measures were 3.3 ± 0.17 and 3.42 ± 0.48.
For EFVNGWYILLVTSDVLTISGTIMK [MCOLN1] the same measures were 3.06 ± 0.26 and 3.08 ± 0.33.
Consider EGKSRHVDFQCVKSKSITNLAAAA [BTBD10], for which the protein stability index runs as follows: (treatment: DMSO) 3.48 ± 0.43; (treatment: MLN4924 1 uM, 8 h) 3.9 ± 0.28.
Take EGRFWKSKNEDRGEEEAESSISST [ZMYND11]: the protein stability index came out at 5.65 ± 0.2 (treatment: DMSO) and 5.71 ± 0.13 (treatment: MLN4924 1 uM, 8 h).
For EGYKDADYWLRRFEAEPLPENTNR [PI4K2A] the same measures were 4.52 ± 0.13 and 4.41 ± 0.16.
For EHERAHRGEKPHGCSLCGKAFYKR [ZNF649] the same measures were 2.79 ± 0.11 and 3.45 ± 0.59.
For EHKSLTGTARYMSINTHLGKEQSR [CSNK1G3] the same measures were 4.02 ± 0.095 and 3.82 ± 0.38.
Consider EHTGEVRTARALLDRDALKQSLVV [PCDHGA10], for which the protein stability index by setting is: (treatment: DMSO) 3.23 ± 0.2; (treatment: MLN4924 1 uM, 8 h) 3.3 ± 0.26.
For EHVSRALCIHTGRELRCKVFPIKH [TRIB1], in that order: 2.21 ± 0.13 and 2.61 ± 0.3.
Regarding EIDSVPKTQSELASESEHIPKPQS [MIA2], the protein stability index by setting is: (treatment: DMSO) 5.42 ± 0.26; (treatment: MLN4924 1 uM, 8 h) 5.49 ± 0.2.
Consider EIVVTISWAKSIPGFSSLSLSDQM [ESRRA], for which the protein stability index stood at 3.19 ± 0.5 (treatment: DMSO) and 2.59 ± 0.22 (treatment: MLN4924 1 uM, 8 h).
For EKAMAEWVKQQAEREAEKEQKRLE [SDE2] the same measures were 5.5 ± 0.34 and 5.57 ± 0.18.
Take EKRGFTSHFVFVIEVKTKGGSKYL [NCF4]: the protein stability index is 3.02 ± 1.1 (treatment: DMSO) and 3.64 ± 1.1 (treatment: MLN4924 1 uM, 8 h).
For EKVEVQLPELFHKIGVGAMTWSPL [KCNAB2], in that order: 2.45 ± 0.26 and 2.51 ± 0.16.
ELCRDAAQFRLLSEVEELNMSLTA [TEKT4]: the protein stability index reads like this: (treatment: DMSO) 2.85 ± 0.34; (treatment: MLN4924 1 uM, 8 h) 2.77 ± 0.28.
For ELLKEAELIRNIQELLKRTIMQAV [TEKT4] the same measures were 2.4 ± 0.2 and 2.27 ± 0.31.
ELPKPEVISQLEQGTELWVAERGT [ZNF8]: the protein stability index runs as follows: (treatment: DMSO) 4.76 ± 0.17; (treatment: MLN4924 1 uM, 8 h) 4.82 ± 0.66.
For ELRDISSMAMEYFDEKIVPILKRK [FBXO28], in that order: 2.78 ± 0.36 and 3 ± 0.45.
As for ELSNFKSQKVLGLNEDPLKWWSDR [ZBED1], the protein stability index is, setting by setting: (treatment: DMSO) 2.73 ± 0.17; (treatment: MLN4924 1 uM, 8 h) 2.97 ± 0.26.
In the case of ELVHFLLLKYRAREPVTKAEMLGS [MAGEA3], the protein stability index runs as follows: (treatment: DMSO) 2.54 ± 0.63; (treatment: MLN4924 1 uM, 8 h) 2.73 ± 0.92.
For ELVPHPETAPTTVDRTHALMKKIG [CRYL1], in that order: 4.31 ± 0.23 and 4.48 ± 0.35.
For ENGSVSSSETPPPPPPPNEINPPP [EIF5] the same measures were 5.32 ± 0.18 and 5.35 ± 0.17.

Values taken from the supplement of paper PMC10567573.
